# In patent US8512964:
# B1: myosin light chain interacting protein (Mylip) (protein)
# chain: MLCYVTRPDAVLMEVEVEAKANGEDCLNQVCRRLGIIEVDYFGLQFTGSKGESLWLNLRNRISQQMDGLAPYRLKLRVKFFVEPHLILQEQTRHIFFLHIKEALLAGHLLCSPEQAVELSALLAQTKFGDYNQNTAKYNYEELCAKELSSATLNSIVAKHKELEGTSQASAEYQVLQIVSAMENYGIEWHSVRDSEGQKLLIGVGPEGISICKDDFSPINRIAYPVVQMATQSGKNVYLTVTKESGNSIVLLFKMISTRAASGLYRAITETHAFYRCDTVTSAVMMQYSRDLKGHLASLFLNENINLGKKYVFDIKRTSKEVYDHARRALYNAGVVDLVSRNNQSPSHSPLKSSESSMNCSSCEGLSCQQTRVLQEKLRKLKEAMLCMVCCEEEINSTFCPCGHTVCCESCAAQLQSCPVCRSRVEHVQHVYLPTHTSLLNLTVI
# Sequence of apoER2 (Q14114 whole entry): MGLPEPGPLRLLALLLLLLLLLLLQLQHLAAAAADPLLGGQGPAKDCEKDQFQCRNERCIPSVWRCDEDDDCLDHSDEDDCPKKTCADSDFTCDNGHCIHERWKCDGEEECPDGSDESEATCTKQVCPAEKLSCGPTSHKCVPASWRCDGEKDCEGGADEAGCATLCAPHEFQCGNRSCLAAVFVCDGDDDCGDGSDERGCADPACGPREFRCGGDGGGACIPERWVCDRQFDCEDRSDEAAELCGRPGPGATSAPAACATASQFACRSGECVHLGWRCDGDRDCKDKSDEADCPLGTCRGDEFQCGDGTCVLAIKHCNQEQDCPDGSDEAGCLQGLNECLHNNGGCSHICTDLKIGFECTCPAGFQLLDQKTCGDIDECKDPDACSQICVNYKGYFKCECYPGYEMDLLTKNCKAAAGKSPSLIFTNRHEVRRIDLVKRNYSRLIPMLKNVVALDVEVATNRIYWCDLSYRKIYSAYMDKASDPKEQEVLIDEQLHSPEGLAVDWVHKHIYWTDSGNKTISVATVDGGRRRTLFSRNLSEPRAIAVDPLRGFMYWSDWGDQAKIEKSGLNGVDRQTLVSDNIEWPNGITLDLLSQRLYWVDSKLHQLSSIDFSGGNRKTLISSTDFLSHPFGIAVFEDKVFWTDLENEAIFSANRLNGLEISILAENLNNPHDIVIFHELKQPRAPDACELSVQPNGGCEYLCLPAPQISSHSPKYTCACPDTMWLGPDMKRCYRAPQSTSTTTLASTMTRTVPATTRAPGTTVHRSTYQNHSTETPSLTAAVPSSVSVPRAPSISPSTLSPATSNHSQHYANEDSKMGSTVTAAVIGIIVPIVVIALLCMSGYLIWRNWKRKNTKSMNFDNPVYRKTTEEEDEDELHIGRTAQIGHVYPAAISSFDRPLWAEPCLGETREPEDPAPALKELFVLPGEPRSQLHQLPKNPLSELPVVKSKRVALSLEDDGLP
protein,measurement,setting,value
B1,degradation in the cotransfection assay,LRP-1,"Several other members, including LRP-1, LRP-1b and the EGFR receptor are not"
same,degradation in the cotransfection assay,EGFR receptor,"Several other members, including LRP-1, LRP-1b and the EGFR receptor are not"
same,degradation in the cotransfection assay,LRP-1b,"Several other members, including LRP-1, LRP-1b and the EGFR receptor are not"
same,degradation in the cotransfection assay,apoER2,"the VLDLR and apoER2, are both capable of being degraded by Idol in our cotransfection assay"
same,degradation in the cotransfection assay,VLDLR,"the VLDLR and apoER2, are both capable of being degraded by Idol in our cotransfection assay"
